Source: PMC314469, “Protein Interaction Networks by Proteome Peptide Scanning” (PLoS Biology, 2004)

T1: Boi1 SH3 (BOI1_YEAST), P38041
T1 chain: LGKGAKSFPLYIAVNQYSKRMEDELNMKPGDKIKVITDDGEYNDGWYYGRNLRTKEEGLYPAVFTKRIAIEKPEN

T2: Yfr024 SH3 (LSB3_YEAST), P43603
T2 chain: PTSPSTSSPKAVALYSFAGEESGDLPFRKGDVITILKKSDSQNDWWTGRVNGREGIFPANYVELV

T3: Yhr016c SH3 (YSC84_YEAST), P32793
T3 chain: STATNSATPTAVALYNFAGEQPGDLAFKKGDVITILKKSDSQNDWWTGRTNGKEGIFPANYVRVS

T4: Boi2 SH3 (BOI2_YEAST), P39969
T4 chain: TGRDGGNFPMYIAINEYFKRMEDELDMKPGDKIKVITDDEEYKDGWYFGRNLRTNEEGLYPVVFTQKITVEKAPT

T5: Rvs167 SH3 (RV167_YEAST), P39743
T5 chain: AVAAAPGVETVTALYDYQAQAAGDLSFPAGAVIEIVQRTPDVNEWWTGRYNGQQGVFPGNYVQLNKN


Target: T1, Boi1 SH3 (BOI1_YEAST), P38041
Assay: SPOT array

Row | Binder | normalised SPOT signal, Boehringer light units (BLU); mean over the file's lines of this peptide
1 | NSRPQQPERRRFNS [YOR042W 296-309] | 7150
2 | NSLPSSPKKQPARN [YCL063W 173-186] | 57.1
3 | NSMPNVPVRLKLHT [YKL208W 152-165] | 5300
4 | NPPPVPPPRNVTAM [YNL176C 548-561] | 180
5 | NSSPMSPLKEKYVL [YOR299W 430-443] | 42.6
6 | NNAPTLPKRKNPKI [YPR055W 477-490] | 2740
7 | NVQPRKPSRVHSRN [YFR022W 634-647] | 899
8 | NTVPSTPSRSNSVL [YKL038W 137-150] | 45.3
9 | NNNPVPPQKINQPP [YDL203C 198-211] | 21.2
10 | NNGPKIPQKNTIDS [YKR029C 581-594] | 44.6
11 | NSPPVYPKRIRHFE [YDR061W 22-35] | 8630
12 | NNTPIVPEKFSNDL [YKR004C 249-262] | 69.3
13 | NVDPASPWRHELLS [YGL107C 76-89] | 72.9
14 | NYAPRLPRRETSSS [YIL061C 231-244] | 3860
15 | NSPPTTPSKDESGP [YMR190C 45-58] | 43.4
16 | NSNPIDPLRSDRSV [YNL144C 502-515] | 274
17 | NRKPAEPTKPNNLD [YML075C 1024-1037] | 51.4
18 | NQAPLEPLKPTATG [YIR006C 229-242] | 115
19 | NWSPNIPLRYSDFA [YOL017W 129-142] | 1070

Target: T2, Yfr024 SH3 (LSB3_YEAST), P43603
Assay: SPOT array

Row | Binder | normalised SPOT signal, Boehringer light units (BLU); mean over the file's lines of this peptide
20 | NSRPQQPERRRFNS [YOR042W 296-309] | 40900
21 | NSLPSSPKKQPARN [YCL063W 173-186] | 331
22 | NSMPNVPVRLKLHT [YKL208W 152-165] | 20400
23 | NPPPVPPPRNVTAM [YNL176C 548-561] | 14200
24 | NSSPMSPLKEKYVL [YOR299W 430-443] | 282
25 | NNAPTLPKRKNPKI [YPR055W 477-490] | 40800
26 | NVQPRKPSRVHSRN [YFR022W 634-647] | 19900
27 | NTVPSTPSRSNSVL [YKL038W 137-150] | 26300
28 | NNNPVPPQKINQPP [YDL203C 198-211] | 212
29 | NNGPKIPQKNTIDS [YKR029C 581-594] | 424
30 | NSPPVYPKRIRHFE [YDR061W 22-35] | 23100
31 | NNTPIVPEKFSNDL [YKR004C 249-262] | 194
32 | NVDPASPWRHELLS [YGL107C 76-89] | 63
33 | NYAPRLPRRETSSS [YIL061C 231-244] | 29100
34 | NSPPTTPSKDESGP [YMR190C 45-58] | 101
35 | NSNPIDPLRSDRSV [YNL144C 502-515] | 301
36 | NRKPAEPTKPNNLD [YML075C 1024-1037] | 292
37 | NQAPLEPLKPTATG [YIR006C 229-242] | 25.1
38 | NWSPNIPLRYSDFA [YOL017W 129-142] | 3720

Target: T3, Yhr016c SH3 (YSC84_YEAST), P32793
Assay: SPOT array

Row | Binder | normalised SPOT signal, Boehringer light units (BLU); mean over the file's lines of this peptide
39 | NSRPQQPERRRFNS [YOR042W 296-309] | 14500
40 | NSLPSSPKKQPARN [YCL063W 173-186] | 199
41 | NSMPNVPVRLKLHT [YKL208W 152-165] | 11000
42 | NPPPVPPPRNVTAM [YNL176C 548-561] | 12200
43 | NSSPMSPLKEKYVL [YOR299W 430-443] | 442
44 | NNAPTLPKRKNPKI [YPR055W 477-490] | 45600
45 | NVQPRKPSRVHSRN [YFR022W 634-647] | 5260
46 | NTVPSTPSRSNSVL [YKL038W 137-150] | 9290
47 | NNNPVPPQKINQPP [YDL203C 198-211] | 20.2
48 | NNGPKIPQKNTIDS [YKR029C 581-594] | 74.1
49 | NSPPVYPKRIRHFE [YDR061W 22-35] | 22100
50 | NNTPIVPEKFSNDL [YKR004C 249-262] | 272
51 | NVDPASPWRHELLS [YGL107C 76-89] | 271
52 | NYAPRLPRRETSSS [YIL061C 231-244] | 50300
53 | NSPPTTPSKDESGP [YMR190C 45-58] | 293
54 | NSNPIDPLRSDRSV [YNL144C 502-515] | 67.7
55 | NRKPAEPTKPNNLD [YML075C 1024-1037] | 234
56 | NQAPLEPLKPTATG [YIR006C 229-242] | 208
57 | NWSPNIPLRYSDFA [YOL017W 129-142] | 1410

Target: T4, Boi2 SH3 (BOI2_YEAST), P39969
Assay: SPOT array

Row | Binder | normalised SPOT signal, Boehringer light units (BLU); mean over the file's lines of this peptide
58 | NSRPQQPERRRFNS [YOR042W 296-309] | 2470
59 | NSLPSSPKKQPARN [YCL063W 173-186] | 31.8
60 | NSMPNVPVRLKLHT [YKL208W 152-165] | 2750
61 | NPPPVPPPRNVTAM [YNL176C 548-561] | 42.3
62 | NSSPMSPLKEKYVL [YOR299W 430-443] | 65.1
63 | NNAPTLPKRKNPKI [YPR055W 477-490] | 62.5
64 | NVQPRKPSRVHSRN [YFR022W 634-647] | 1310
65 | NTVPSTPSRSNSVL [YKL038W 137-150] | 46.6
66 | NNNPVPPQKINQPP [YDL203C 198-211] | 43.4
67 | NNGPKIPQKNTIDS [YKR029C 581-594] | 27.3
68 | NSPPVYPKRIRHFE [YDR061W 22-35] | 3110
69 | NNTPIVPEKFSNDL [YKR004C 249-262] | 27.9
70 | NVDPASPWRHELLS [YGL107C 76-89] | 8.5
71 | NYAPRLPRRETSSS [YIL061C 231-244] | 4640
72 | NSPPTTPSKDESGP [YMR190C 45-58] | 29.9
73 | NSNPIDPLRSDRSV [YNL144C 502-515] | 45.3
74 | NRKPAEPTKPNNLD [YML075C 1024-1037] | 96.2
75 | NQAPLEPLKPTATG [YIR006C 229-242] | 14.5
76 | NWSPNIPLRYSDFA [YOL017W 129-142] | 574

Target: T5, Rvs167 SH3 (RV167_YEAST), P39743
Assay: SPOT array

Row | Binder | normalised SPOT signal, Boehringer light units (BLU); mean over the file's lines of this peptide
77 | NSRPQQPERRRFNS [YOR042W 296-309] | 3880
78 | NSLPSSPKKQPARN [YCL063W 173-186] | 211
79 | NSMPNVPVRLKLHT [YKL208W 152-165] | 2480
80 | NPPPVPPPRNVTAM [YNL176C 548-561] | 1190
81 | NSSPMSPLKEKYVL [YOR299W 430-443] | 69.2
82 | NNAPTLPKRKNPKI [YPR055W 477-490] | 19800
83 | NVQPRKPSRVHSRN [YFR022W 634-647] | 1900
84 | NTVPSTPSRSNSVL [YKL038W 137-150] | 387
85 | NNNPVPPQKINQPP [YDL203C 198-211] | 46.9
86 | NNGPKIPQKNTIDS [YKR029C 581-594] | 26.5
87 | NSPPVYPKRIRHFE [YDR061W 22-35] | 3590
88 | NNTPIVPEKFSNDL [YKR004C 249-262] | 3.8
89 | NVDPASPWRHELLS [YGL107C 76-89] | 33.4
90 | NYAPRLPRRETSSS [YIL061C 231-244] | 28000
91 | NSPPTTPSKDESGP [YMR190C 45-58] | 40.1
92 | NSNPIDPLRSDRSV [YNL144C 502-515] | 22.8
93 | NRKPAEPTKPNNLD [YML075C 1024-1037] | 91.3
94 | NQAPLEPLKPTATG [YIR006C 229-242] | 37.7
95 | NWSPNIPLRYSDFA [YOL017W 129-142] | 189
